Source: paper PMC11190351 (Plant Direct, 2024)

Target: the molecule itself
Experiment: SEC

B1: Chlamydomonas reinhardtii alpha amylase 2 (AMA2), full-length recombinant enzyme (enzyme, UniProt A0A2K3DGK5 1-706, looked up)
chain: MDRSLLSRTSPRMQLGRPQQLPPPTVPLAQVPRLQRRCVVGSRVCQPVVAVRPGRASAGRGGRLVVSSVDMSNSPLSSMDAGEGLDIMFDNNSDAECTVVTVEGKDKAHLLMSLTGGFSSAGLTVISASITSDDGRVLDVFRVQTADGKKVPEEQFPSVREHILSVTATSSRSSMPAIYGIVAAAEVERLKPLRSQSTQNDVDALELAAAEMTQAVAELVATERDIIRMRASNADARTLQTKEANRTEAAAGLERKMAAMQAVLAARRNLATEPEKPKSPTEKLLETLKPPTPMRAAAGAGSGSGSEILLQAFNWESHRQKLYKQLMGRVKDISDAGFTGVWMPPPSDSVSPQGYLPRDLYSLDSAYGSEAELRELIAAFHQNNIKVIADIVVNHRCANSQGSDGKWNKFGGRLAWDASAICSNNPSFGGRGNPKQGDDYAAAPNIDHSQERIRNDIVQWMKYLRNSIGFDGWRFDFVRGYLGSYCKQYIDETVPAMAFGEYWDSCEYTDGVLNYNQDAHRQRTVNWCDSTGGTSAAFDFTTKGILQEAVGRREYWRLVDSQGRPPGVMGMWPSRAITFIDNHDTGSTLNHWPFPSRNLPEGYAYILTHPGTPCVFYDHFYQEENNLRKIILDLLKVRRRNGLNARSKVVMKKSAADVYAAMIDDKVAVKLGPGDWSPNQSGIKVNGKELKVAASGFQFAVWEGQH
- stoichiometry N: 2
